The record followed here is article PMC11614891, “Accurate de novo design of heterochiral protein–protein interactions” (Cell Research, 2024).

The chains are these.
B2: L-Pep-1 (peptide)
peptide: DEHELLETAARWFYEIAKRA
modifications: also: biotinylated (site not given here)
notes: artificial amphipathic alpha-helical peptide
B3: D-19437_(L-Pep-1) (designed binder)
chain: G[dS][dL][dP][dV][dE][dK][dI][dI][dR][dE][dA][dK][dK][dI][dL][dD][dE][dL][dL][dK][dR]G[dL][dI][dD][dP][dE][dL][dA][dR][dI][dA][dR][dE][dV][dL][dE][dR][dA][dR][dK][dL]G[dN][dE][dE][dA][dA][dR][dF][dV][dL][dE][dL][dI][dE][dR][dL][dR][dR][dE][dL][dS]G[dS]G
notes: source: chemically synthesized (Fmoc SPPS), folded by dialysis, purified by SEC

Values joined by “and” are separate entries in the source; they are usually repeats but may differ in a detail not shown here. Equal entries are not always repeated. Square brackets hold non-standard residues; d marks the D form. Ends that are not written are not given here.

The target in one data set is T1, D-IL-6 (human, all residues D-amino acids (glycine achiral); biotin on the N-terminus; C-terminal amide).
T1 construct: additional methionine at the N-terminus (Met1 of the chain of 186 residues); human interleukin-6, residues 28-212, made of D-amino acids; also called mirror image of human interleukin-6
T1 sequence (chain, as listed by the source): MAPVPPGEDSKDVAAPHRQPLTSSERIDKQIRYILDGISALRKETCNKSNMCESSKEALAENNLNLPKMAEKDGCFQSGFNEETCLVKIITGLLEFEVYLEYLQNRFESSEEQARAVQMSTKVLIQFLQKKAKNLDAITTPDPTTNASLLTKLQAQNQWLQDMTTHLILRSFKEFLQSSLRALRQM
The data set can be described thus: BLI; Octet RED96e; biotinylated target immobilised on streptavidin biosensors, binder in solution; PBS pH 7.4 with 0.02% TWEEN; 25 °C; global fit. To be noted: both partners purified. Background: BLI is a label-free optical method that tracks binding on a fibre tip over time.

The data set “D-19437_(L-Pep-1)” concerns the target B3. The data set can be described thus: ITC; MicroCal PEAQ-ITC, 19 injections; peptide titrated over the binder (L-19437 15 uM, D-Pep-1 150 uM); PBS pH 7.4; One Set of Sites mode. The note with it: both partners purified. Background: In ITC the heat of successive injections is recorded.
The data set “L-Pep-1” deals with B2. Put plainly: BLI; Octet RED96e; biotinylated target immobilised on streptavidin biosensors, binder in solution; PBS pH 7.4 with 0.02% TWEEN; 25 °C; global fit. To be noted: both partners purified.
Data set [1] concerns the molecule itself. Put plainly: SEC; D-19437 alone on Superdex 75 Increase 10/300, compared with the mixture with L-Pep-1; fractions on SDS-PAGE, Coomassie blue.
In data set [2] the target is T2, D-TrkA (human, all residues D-amino acids (glycine achiral); biotin on the N-terminus; C-terminal amide).
T2 construct: also called mirror image of the D5 domain of human TrkA
T2 chain: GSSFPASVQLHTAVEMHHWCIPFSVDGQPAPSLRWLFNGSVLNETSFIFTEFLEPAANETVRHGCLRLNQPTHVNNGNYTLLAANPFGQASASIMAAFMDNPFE
Put plainly: BLI; Octet RED96e; biotinylated target immobilised on streptavidin biosensors, binder in solution; PBS pH 7.4 with 0.02% TWEEN; 25 °C; global fit. To be noted: both partners purified.

In data set [3] the target is T2, D-TrkA. Described as above. To be noted: both partners purified.
Data set [4] has as its target T3, L-TrkA (human, biotinylated for BLI (site not stated)).
T3 construct: also called D5 domain of human tropomyosin receptor kinase A
T3 chain: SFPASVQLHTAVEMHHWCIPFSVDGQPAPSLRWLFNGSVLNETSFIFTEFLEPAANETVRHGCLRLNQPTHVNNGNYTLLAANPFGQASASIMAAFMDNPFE
The data set can be described thus: MST; Nanotemper Monolith NT.115; 50 nM L-TrkA, D-57445-evo in 16 two-fold dilutions from 122 pM to 40 uM; PBS with 0.05% Tween20, pH 7.4; MST power 40%. The note with it: both partners purified.

Data set [5] deals with T3, L-TrkA. Put plainly: BLI; Octet RED96e; biotinylated target immobilised on streptavidin biosensors, binder in solution; PBS pH 7.4 with 0.02% TWEEN; 25 °C; global fit. The note with it: both partners purified.
A further data set addresses T4, L-IL-6 (human, biotinylated for BLI (site not stated)).
T4 construct: additional methionine at the N-terminus; human interleukin-6, residues 28-212; also called human interleukin-6
The data set is described as above. To be noted: both partners purified.

The term Kd denotes the equilibrium constant for the complex coming apart. In general, koff refers to a measure of how fast the partners let go of each other. A word on the kon: it is the rate constant with which the complex forms. By stoichiometry N is commonly meant a count of units in the complex or per binding partner.

D-19437_(L-Pep-1), sequence (chain, as listed by the source): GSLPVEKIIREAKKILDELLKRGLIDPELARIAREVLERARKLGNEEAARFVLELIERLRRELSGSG

B1: L-25367_(D-IL-6) (designed binder)
chain: GEEEVKEYLTRKFKDDPELVRLLREAIEVLLKAGEDPELVLSLIESLIHITGDPRAAVKLAKEFG
notes: source: E. coli Lemo21(DE3), purified (Ni Sepharose, SEC)
B1: in the data set with D-IL-6, the Kd is 25.1 nM and 11.8 nM; the koff was found to be 0.00758 s⁻¹; the kon is 302000 M⁻¹ s⁻¹ and 644000 M⁻¹ s⁻¹.
Regarding B2, in the data set with D-19437_(L-Pep-1), the Kd was 12.4 ± 2.1 nM and the “stoichiometry N” value was determined as 0.932 ± 0.003 sites.
Regarding B3, in the data set with L-Pep-1, the Kd was 59.6 nM and 37.6 nM; the off-rate (koff) was 0.0162 s⁻¹ and 0.0122 s⁻¹; the on-rate (kon) was 272000 M⁻¹ s⁻¹ and 324000 M⁻¹ s⁻¹. In data set [1], the “stoichiometry N” value stood at 2.

B4: L-57445-evo_(D-TrkA) (designed binder)
chain: STQELVEELLELVRKDLEEARKLAKEIVKELGLSPELRFFLQLAIALAQRDPEVARRILERALNL
notes: the methods name only the three parents
Consider B4, for which, in the data set with D-TrkA [2], the equilibrium dissociation constant (Kd) is 7.85 nM and 10.9 nM; the koff is 0.000297 s⁻¹ and 0.000322 s⁻¹; the on-rate constant (kon) was 37800 M⁻¹ s⁻¹ and 29400 M⁻¹ s⁻¹. In the data set with D-TrkA [3], this molecule registered a Kd of 7.84 ± 0.02 nM.

B5: L-57445_(D-TrkA) (designed binder)
chain: STEELVEELLELARKDPQEARKLVEEIVKELGLSPERRFELQLAIVLAQRDPELARRILERALNH
notes: as for B1
On to B5, for which, in the data set with D-TrkA [2], the Kd came out at 152 nM, the off-rate (koff) was 0.0508 s⁻¹ and the kon worked out at 334000 M⁻¹ s⁻¹.

B6: D-57445-evo_(L-TrkA) (designed binder)
chain: [dS][dT][dQ][dE][dL][dV][dE][dE][dL][dL][dE][dL][dV][dR][dK][dD][dL][dE][dE][dA][dR][dK][dL][dA][dK][dE][dI][dV][dK][dE][dL]G[dL][dS][dP][dE][dL][dR][dF][dF][dL][dQ][dL][dA][dI][dA][dL][dA][dQ][dR][dD][dP][dE][dV][dA][dR][dR][dI][dL][dE][dR][dA][dL][dN][dL]
notes: source: chemically synthesized, folded
B6 returned a Kd with L-TrkA [4] of 1.19 nM. Further, in the data set with L-TrkA [5], the dissociation constant (Kd) was 1.73 nM and 1.8 nM; the off-rate constant (koff) was 0.000248 s⁻¹ and 0.000243 s⁻¹; the kon was 144000 M⁻¹ s⁻¹ and 135000 M⁻¹ s⁻¹.

B7: D-25367-evo_(L-IL-6) (designed binder)
chain: G[dE][dE][dE][dV][dI][dE][dY][dL][dT][dR][dE][dF][dK][dD][dD][dP][dE][dL][dV][dR][dL][dL][dR][dE][dA][dI][dE]G[dL][dL][dK][dA]G[dE][dD][dP][dE][dI][dV][dE][dM][dL][dI][dE][dS][dL][dI][dH][dI][dT]G[dN][dP][dR][dV][dA][dV][dK][dL][dA][dK][dE][dY][dA]
notes: D-protein form of 25367-evo; source: chemically synthesized, folded
Take B7: in the data set with L-IL-6, the equilibrium dissociation constant (Kd) is 3.03 nM and 8.75 nM; the koff was 0.000328 s⁻¹ and 0.000199 s⁻¹.

B8: L-25367-evo_(D-IL-6) (designed binder)
chain: GEEEVIEYLTREFKDDPELVRLLREAIEGLLKAGEDPEIVEMLIESLIHITGNPRVAVKLAKEYA
notes: 25367-evo, evolved from design 25367 by directed evolution; the methods name only the three parents
B8: in the data set with D-IL-6, the Kd is 0.724 nM and 1.68 nM; the koff was 0.000185 s⁻¹ and 0.00046 s⁻¹; the on-rate (kon) is 256000 M⁻¹ s⁻¹ and 275000 M⁻¹ s⁻¹.

B9: D-57445_(L-TrkA) (designed binder)
chain: [dS][dT][dE][dE][dL][dV][dE][dE][dL][dL][dE][dL][dA][dR][dK][dD][dP][dQ][dE][dA][dR][dK][dL][dV][dE][dE][dI][dV][dK][dE][dL]G[dL][dS][dP][dE][dR][dR][dF][dE][dL][dQ][dL][dA][dI][dV][dL][dA][dQ][dR][dD][dP][dE][dL][dA][dR][dR][dI][dL][dE][dR][dA][dL][dN][dH]
notes: as for B3
In the data set with L-TrkA [5], B9 displayed a Kd of 151 nM, a dissociation rate constant (koff) of 0.0351 s⁻¹ and an association rate constant (kon) of 232000 M⁻¹ s⁻¹.

B10: D-25367_(L-IL-6) (designed binder)
chain: G[dE][dE][dE][dV][dK][dE][dY][dL][dT][dR][dK][dF][dK][dD][dD][dP][dE][dL][dV][dR][dL][dL][dR][dE][dA][dI][dE][dV][dL][dL][dK][dA]G[dE][dD][dP][dE][dL][dV][dL][dS][dL][dI][dE][dS][dL][dI][dH][dI][dT]G[dD][dP][dR][dA][dA][dV][dK][dL][dA][dK][dE][dF]G
notes: D-protein form of design 25367; source: chemically synthesized (Fmoc SPPS), folded by dialysis, purified by SEC
In the case of B10, in the data set with L-IL-6, the equilibrium dissociation constant (Kd) is 28.3 nM and 48.3 nM; the off-rate constant (koff) was 0.0111 s⁻¹ and 0.0102 s⁻¹; the kon is 391000 M⁻¹ s⁻¹ and 211000 M⁻¹ s⁻¹.
